Test results: the RNAGym collection of RNA variant scans (doi:10.1093/molbev/msab373)

B1: Azoarcus group I ribozyme (parent)
chain: GUGCCUUGCGCCGGGAAACCACGCAAGGGAUGGUGUCAAAUUCGGCGAAACCUAAGCGCCCGCCCGGGCGUAUGGCAACGCCGAGCCAAGCUUCGGCGCCUGCGCCGAUGAAGGUGUAGAGACUAGACGGCACCCACCUAAGGCAAACGCUAUGGUGAAGGCAUAGUCCAGGGAGUGGCGAAAGUCACACAAACCGG

Variants of: B1
Assay: reverse-splicing fitness (ratio to wild type); higher = more active; in vitro selection; Mg2+ level not given
Procedure, shortened: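 An in vitro group I ribozyme library with randomized positions was T7-transcribed and gel-purified. In triplicate, 10 pmol RNA in EPPS pH 7.5 was reacted with 50 pmoles of a 30-nt RNA substrate for 1 h at 37 °C across several added MgCl2 levels (1–48 mM), then stopped with EDTA. Products were reverse transcribed from a substrate-complementary primer, PCR-amplified and sequenced (HiSeq 4000). Fitness is a variant's read proportion after selection over that before, normalised to wild type.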

In order of falling reverse-splicing fitness:
1. C82U A111U A145G C150A U176C  0.0426
2. C82U A111U A145C C150U U176C  0.038
3. C82U A111U A145C C150U U176A  0.0276
4. C82U A111U A120U A145U  0.0252
5. C82U A111U A120U A145G  0.0251
6. C82U A111U A145G C150A U176A  0.0215
7. C82U A111U A120U C150U  0.0175
8. C82U A111U A145C C150G U176C  0.0175
9. C82U A111U A145G C150U C169A U176C  0.0159
10. C82U A111U A145G C150U C169A U176A  0.0156
11. C82U A111U A145C C150A C169U U176A  0.0138
12. C82U A111U A145U C150A C169A U176A  0.0123
13. C82U A111U A145C C150U U176G  0.011
14. C82U A111U A145G C150A C169U  0.0105
15. C82U A111U A145C C169U  0.0102
16. C82U A111U A145C C150G U176A  0.00994
17. C82U A111U A145G C150A C169A  0.00979
18. C82U A111U A145C C150G C169U U176C  0.00969
19. C82U A111U A145G C150A U176G  0.00953
20. C82U A111U A145U C150A C169A U176C  0.00929
21. C82U A111U A145C C169G  0.0091
22. C82U A111U A145C C150A C169U U176C  0.00882
23. C82U A111U A120U C150U U176C  0.0088
24. C82U A111U A145G C150A C169G  0.00847
25. C82U A111U A145C C150G C169U U176A  0.00804
26. C82U A111U A120U C150A C169G U176A  0.00758
27. C82U A111U A120U A145C U176C  0.00756
28. C82U A111U A145U C150A C169A U176G  0.00735
29. C82U A111U A120U C150A  0.00701
30. C82U A111U A120U A145G C150A U176A  0.00691
31. C82U A111U A145G C150U C169A U176G  0.00684
32. C82U A111U A145C C169A  0.00671
33. C82U A111U A120U C150U U176A  0.00668
34. C82U A111U A120U C150G  0.00645
35. C82U A111U A120U A145G C150A U176C  0.00627
36. C82U A111U A120U A145C U176A  0.00627
37. C82U A111U A120U C150A U176C  0.00596
38. C82U A111U A145C C150A C169U U176G  0.00574
39. C82U A111U A145C C150A C169G U176G  0.00573
40. C82U A111U A120U A145G C150A C169A  0.00571
41. C82U A111U A120U C150A U176A  0.00551
42. C82U A111U A145C C150G C169U U176G  0.00515
43. C82U A111U A120U A145G C150A C169G  0.00478
44. C82U A111U A120U C169U  0.00477
45. C82U A111U A120U A145U C150G U176C  0.0047
46. C82U A111U A120U C150A C169G U176C  0.00448
47. C82U A111U A145C C150G U176G  0.00423
48. C82U A111U A120U C150G C169A U176C  0.00404
49. C82U A111U A120U C150G C169A U176A  0.004
50. C82U A111U A120U C169G  0.00397
51. C82U A111U A120U A145U C169U  0.0039
52. C82U A111U A120U A145G C150A C169U  0.00374
53. C82U A111U A120U A145U C150U C169U  0.00365
54. C82U A111U A120U C150U U176G  0.00363
55. C82U A111U A120U C169U U176A  0.00357
56. C82U A111U A120U A145U C150U C169G  0.00343
57. C82U A111U A120U A145U C150G C169A  0.0034
58. C82U A111U A120U C169U U176C  0.00325
59. C82U A111U A120U C169G U176A  0.00316
60. C82U A111U A120U A145U C150G U176A  0.00312
61. C82U A111U A120U A145U C169G  0.00303
62. C82U A111U A120U C169G U176C  0.00303
63. C82U A111U A120U A145U C169A U176C  0.00301
64. C82U A111U A120U C150A U176G  0.00299
65. C82U A111U A120U A145U C150A C169A U176C  0.00283
66. C82U A111U A120U A145U C150G C169A U176A  0.0028
67. C82U A111U A120U A145U C150G C169G  0.00274
68. C82U A111U A120U A145U C150G C169A U176C  0.00272
69. C82U A111U A120U C150G C169A U176G  0.00272
70. C82U A111U A120U A145U C150G C169U  0.00272
71. C82U A111U A120U A145G C150A U176G  0.00271
72. C82U A111U A120U C169A  0.00267
73. C82U A111U A120U C150A C169G U176G  0.0026
74. C82U A111U A120U A145C U176G  0.00259
75. C82U A111U A120U A145U C150U C169A  0.00254
76. C82U A111U A120U A145U C169A  0.00251
77. C82U A111U A120U A145U C150A C169A U176A  0.00233
78. C82U A111U A120U A145U C169A U176A  0.00233
79. C82U A111U A120U A145U C150G U176G  0.00226
80. C82U A111U A120U A145U C150G C169A U176G  0.00213
81. C82U A111U A120U A145U C150A C169A U176G  0.00206
82. C82U A111U A120U C169G U176G  0.00193
83. C82U A111U A120U C169U U176G  0.0019
84. C82U A111U A120U A145U C169A U176G  0.0017
